Like-named read-outs stand apart in the source and are kept apart here.
B1: SKAP^103–225 (domain or fragment)
chain: TQTRATSKSLLPVRSKEVDVSKQLHSGGPENDVTKITKLRRENGQMKATDTATRRNVRKGYKPLSKQKSEEELKDKNQLLEAVNKQLHQKLTETQGELKDLTQKVELLEKFRDNCLAILESKG
B2: SKAP^159–316 (expressed alone in E. coli) (domain or fragment)
chain: VRKGYKPLSKQKSEEELKDKNQLLEAVNKQLHQKLTETQGELKDLTQKVELLEKFRDNCLAILESKGLDPALGSETLASRQESTTDHMDSMLLLETLQEELKLFNETAKKQMEELQALKVKLEMKEERVRFLEQQTLCNNQVNDLTTALKEMEQLLEM

Experiments:
[1] = molecular target: T1, taxol-stabilized microtubules (α-/β-tubulin) (bovine, UniProt P81947 1-451; Q6B856 1-445)
[2] = molecular target: T1, taxol-stabilized microtubules …; remark: listed apart in the source

T1 sequence (P81947 whole entry, chain 1 of 2): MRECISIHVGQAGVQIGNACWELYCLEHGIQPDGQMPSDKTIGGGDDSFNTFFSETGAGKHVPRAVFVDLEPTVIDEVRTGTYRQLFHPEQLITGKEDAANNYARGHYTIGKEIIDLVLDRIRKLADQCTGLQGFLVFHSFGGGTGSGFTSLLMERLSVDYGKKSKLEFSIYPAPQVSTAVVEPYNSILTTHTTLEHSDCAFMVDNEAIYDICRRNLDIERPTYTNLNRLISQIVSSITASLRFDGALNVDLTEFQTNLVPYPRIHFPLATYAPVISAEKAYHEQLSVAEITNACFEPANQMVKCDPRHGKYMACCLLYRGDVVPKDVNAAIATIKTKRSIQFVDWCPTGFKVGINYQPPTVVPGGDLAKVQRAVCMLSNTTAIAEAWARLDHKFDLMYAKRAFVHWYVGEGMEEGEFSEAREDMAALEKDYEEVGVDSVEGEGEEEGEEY
T1 sequence (Q6B856 whole entry, chain 2 of 2): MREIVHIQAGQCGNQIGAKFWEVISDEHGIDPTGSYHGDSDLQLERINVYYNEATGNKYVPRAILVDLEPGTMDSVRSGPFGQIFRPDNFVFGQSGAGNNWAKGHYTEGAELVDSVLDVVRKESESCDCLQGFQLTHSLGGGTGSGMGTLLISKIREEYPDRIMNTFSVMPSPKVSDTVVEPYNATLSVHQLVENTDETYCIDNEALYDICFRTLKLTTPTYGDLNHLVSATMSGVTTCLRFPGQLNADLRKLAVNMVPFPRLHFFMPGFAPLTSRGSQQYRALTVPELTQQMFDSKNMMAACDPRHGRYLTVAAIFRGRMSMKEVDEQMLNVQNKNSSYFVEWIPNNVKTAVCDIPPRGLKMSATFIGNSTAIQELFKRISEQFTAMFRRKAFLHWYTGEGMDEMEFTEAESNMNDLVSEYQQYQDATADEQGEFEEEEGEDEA

| Binder | Kd [1] | Kd [2] |
| --- | --- | --- |
| B1 | 1100 nM |  |
| B2 |  | 1620 nM |
